Values of other authors, collected in paper PMC6021539.
pKd: −log10 of the molar value.

Target: Adrenomedullin (Homo sapiens) (UniProt P35318)

Q: With CXCR7 (from UniProt P25106) as the substance, how does the pKd read?
A: Its pKd is 6.72.
